In article PMC11145777:

Molecular target: native H3 (human (endogenous in HeLa)) (UniProt P68431)
Experiment: co-IP; native (unfixed) ChIP on mono-nucleosomes: native CpA from untransfected HeLa, GFP-CpA and HA-CpA from transfected HeLa, Western for H1.5 (three antibodies) and H2A; H3 ChIP done sequentially after the native CpA ChIP

linker histone H1.5 (from UniProt P16401 1-226) (natural protein)
fold affinity against native CpA: 13 fold
